This note sets out measurements from the supplement of paper PMC12455559.

A short description of data set [1]: melting temperature (DSF); higher = more thermostable. The method, boiled down:
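Enzymes made in E. coli C41(DE3) were nickel-bead purified and cut free with SUMO protease before testing. Differential scanning fluorimetry gave each melting temperature. For this, 5 μL 5X Sypro Orange was added to 45 μL enzyme (0 to 0.3 mg/mL) in sealed PCR plates, and a Bio-Rad CFX96 read fluorescence from 25 °C over 250 cycles of 0.3 °C each, ramping at 0.3 °C/s.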

Data set [2] can be described thus: purified protein yield per well (BCA); higher = higher soluble expression. The method, boiled down:
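Candidate enzymes were expressed in E. coli C41(DE3) in 2 mL autoinduction cultures with 100 µg/mL kanamycin, at 37 °C for 2 h and then 18 °C for 40 h. Cells were lysed, and protein was bound to Ni-charged magnetic beads and released by SUMO protease cleavage on an OT-2 robot. The read-out is purified protein yield per well, measured with the Pierce Rapid Gold BCA kit. Values below 25 ug (0.1 mg/mL) are below the detection threshold.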

Data set [3] can be described thus: PET hydrolysis, aromatic products released after 48 h (umol product/mg enzyme); higher = more PET depolymerization activity. The method, boiled down:
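Candidate enzymes, made tagless by SUMO cleavage and purified on nickel beads, were added at 5 μg (50 μL) to 3.5 mg of either amorphous PET film or crystalline PET powder in 450 μL buffer. The sealed plates stood unshaken for 48 h at 40 or 60 °C. Activity on PET is the aromatic product found in the supernatant per mg enzyme, read at 260 and 280 nm against buffer blanks.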

[4] abbreviates: substrate: aFilm, 40 °C, pH 4.5.
Setting [5] is: substrate: aFilm, 40 °C, pH 5.5.
[6] abbreviates: substrate: aFilm, 40 °C, pH 6.5.
Where [7] appears, read: substrate: aFilm, 40 °C, pH 7.5.
Setting [8] is: substrate: aFilm, 60 °C, pH 4.5.
The mark [9] stands for this setting: substrate: aFilm, 60 °C, pH 5.5.
Setting [10] is: substrate: aFilm, 60 °C, pH 6.5.
[11] abbreviates: substrate: aFilm, 60 °C, pH 7.5.
[12] abbreviates: substrate: cryPow, 40 °C, pH 4.5.
Setting [13] is: substrate: cryPow, 40 °C, pH 5.5.
Where [14] appears, read: substrate: cryPow, 40 °C, pH 6.5.
[15] abbreviates: substrate: cryPow, 40 °C, pH 7.5.
Where [16] appears, read: substrate: cryPow, 60 °C, pH 4.5.
Where [17] appears, read: substrate: cryPow, 60 °C, pH 5.5.
The mark [18] stands for this setting: substrate: cryPow, 60 °C, pH 6.5.
Setting [19] is: substrate: cryPow, 60 °C, pH 7.5.

± gives the standard deviation of the averaged measurements.

As for “ADNPYQRGPNPTRESVAANRGTFATAETSVGGGNGFGGAKIYYPADTSQGKFAALAVVPGYTATWAAEGAWMGHWLASFGFVIIGIDTNSRNDWDTARGDQLLAALDYLTQRSSVRDRVDANRLGVMGHSMGGGGAISAALKRPTLKAAIGNAPFSASQNLTTMRVPIALNAGQRDGTVTPSMVTGYYNQVPATTEKMYLEFSGAGHAFPTSNNSALTRKIIPWMKIFLDQDTRYQQFLCPVMDNTGISASRSSCPLIPGDPTPPTDTYSLAGAASGKCADVEGRSQTNGAKLLLWPCNGQVNQRWTQTAAGELRVYDNPKCMDAGGSGQGERVTSNACNGGNSQKWTVNANGTVTNTTSGRCLDATGTADDAPVVVNTCNGAASQNWSKRS [TEP131]”, in data set [1], the melting temperature amounted to 55.3 C. In addition, the “purified protein yield per well” value in data set [2] came out at 331 µg. Moreover, the PET hydrolysis in data set [3] (setting [4]), in data set [3] (setting [5]), in data set [3] (setting [6]), in data set [3] (setting [7]), in data set [3] (setting [8]) and in data set [3] (setting [9]) was under 3 in each case. The PET hydrolysis is under 3 in data set [3] (setting [10]); under 3 in data set [3] (setting [11]); under 3 in data set [3] (setting [12]); under 3 in data set [3] (setting [13]); 4 in data set [3] (setting [14]); 6.5 ± 0.71 in data set [3] (setting [15]). Further, the PET hydrolysis in data set [3] (setting [16]), in data set [3] (setting [17]), in data set [3] (setting [18]) and in data set [3] (setting [19]) was under 3 in each case.
Regarding “ADNPYQRGPNPTRESVAASRGTFATAETSVGGGNGFAAAKIYYPTDTGQGKFGAIAVVPGYTATWAAEGAWMGHWLASFGFVVIGIDTLSRNDWDVARGTQLLAALDYLTQRSSVRDRVDATRLAVMGHSMGGGGAISAALRRPSLKTAIGNAPFSASQNLNNMQIPTALLAGQRDGTTTPSSISGYYNQIPAGVEKMYLELTGAGHGFPTSNNSVMTRKVIPWMKIFIDNDTRYHQFLCPLMDNTGISAYRSTCPLIPGDPTPPSDTYSLVGAASGKCADVEGVSQANGARLLLWTCNGQVNQRWTQTAAGELRVYDNPKCMDAGASAQGTRVTINACNGGNSQKWTVNANGTVTNAASGRCLDAGGTADNSPVVVNTCTGGSSQNWSKRS [TEP029]”, in data set [1], the melting temperature was 57.7 C. Also, the “purified protein yield per well” value in data set [2] was found to be 282 µg. Further, the PET hydrolysis in data set [3] (setting [4]), in data set [3] (setting [5]), in data set [3] (setting [6]), in data set [3] (setting [7]), in data set [3] (setting [8]) and in data set [3] (setting [9]) was under 3 throughout. For the same sequence, the PET hydrolysis is under 3 in data set [3] (setting [10]); under 3 in data set [3] (setting [11]); under 3 in data set [3] (setting [12]); under 3 in data set [3] (setting [13]); 14.5 ± 5 in data set [3] (setting [14]); 15.5 ± 0.71 in data set [3] (setting [15]). Also, the PET hydrolysis in data set [3] (setting [16]), in data set [3] (setting [17]), in data set [3] (setting [18]) and in data set [3] (setting [19]) was under 3 each time.
As to “ADNPYQRGPNPTVASVAATRGTFATAQTSVPAGNGFGGGVIYYPTDTSQGTFGGVAIVPGYSALFANEEAWMGPWLASFGFVVIGIETNSRTDSADARGTQLLAALDYLTQRSSVRDRVDPNRLSVVGHSAGGAGVLSAILRRPSLKAGIGLAPGSPVGDYSLSNDRVPTMFISGQRDTTVTQSYLNGLYTTIPASTPSAWVEITGVDHLFATRANTTEMRVLIPWLKIWVDNDTRYTQFLCPLADSTGISMYRNKCPYVPPGGSSPSPSPSPSSSPSRFPSPSPSPSPSQSPSQSPSASPSPPPPGACVAEYRTVNSWPGGYQGEVTVTAGGSAVNGWTVRWTLGSGQTITQLWNGTLSTSGSAVTVKNASFNGSIPASGSATFGFLATGTPSTPSLTCTSP [ESM015]”, in data set [1], the melting temperature was 60.7 C. Besides, in data set [2], the “purified protein yield per well” value was found to be 540 µg. The PET hydrolysis in data set [3] (setting [12]), in data set [3] (setting [13]), in data set [3] (setting [14]), in data set [3] (setting [15]), in data set [3] (setting [16]) and in data set [3] (setting [17]) was under 3 throughout. Besides, the PET hydrolysis in data set [3] (setting [18]) and in data set [3] (setting [19]) was under 3 throughout.
In turn, “ADQRGPDPTVQSIEAARGPFATSTSRVSSLVSGFGGGTIYYPTDTSQGRFGGVVIAPGYTAGESSIAWLGPRLASQGFVVFTIDTLTRVDQPASRGRQLLAAADYLTQRSDVADRVDPARLAVMGHSMGGGGTLEAAKSRPGLKAIIPLTPWNLDKTWPEITTPTLIFGAQNDSVASVVTHARPFYQSLPATTPRSYLELRGASHFAPNLSNTTIAKYSIAWLKRFVDDDQRYTQFLCPAPADTALSDVRTSCPF [TEP091]” returned a melting temperature in data set [1] of 55.6 C. For the same sequence, the “purified protein yield per well” value in data set [2] turned out to be 36.2 µg. Further, the PET hydrolysis in data set [3] (setting [12]) is under 3; in data set [3] (setting [13]), 5; in data set [3] (setting [14]), 10; in data set [3] (setting [15]) it was 17.
On to “ADSPYQRGPDPTLASVAATRGPFATTQATVPAGNGFNGGYVYYPTDTSQGTWGAVAIVPGYSALFANEEAWMGPWLASFGFVVIGIETNSRTDGADARATQLLAALDYLTRTSPIRNRVDPNRLSVMGHSAGGAGTLLAALRRPTLKAAVGLAPGTPGNNLNMSTTQVPTMLLSGQNDGTVTPSYVQGIYNTLPAGVEHAWAELAGNDHLSFTRSNPTEMRLLIPWLKTFLDNDTRYTQFLCPLADSTGVSRYSATCPLVPPDGPTPPPTTAPPTTTPPTSTPPTTSAPTTPPPSGAACTATYRTVNSWSGGFQGEVTVTAGTAAVNGWTVTWNLSNGQSISQVWNGTLSTSGSTATVRNVSYNGSLAPGGTTTFGFLGSGTPANASPTCASP [ESM014]”, for which, in data set [1], the melting temperature amounted to 59.2 C. The “purified protein yield per well” value in data set [2] worked out at 85.8 µg. The PET hydrolysis in data set [3] (setting [12]), in data set [3] (setting [13]), in data set [3] (setting [14]), in data set [3] (setting [15]), in data set [3] (setting [16]) and in data set [3] (setting [17]) was under 3 in each case. Further, the PET hydrolysis in data set [3] (setting [18]) and in data set [3] (setting [19]) was under 3 in each case.
For “ADTPYERGPNPSESLIEQRRGNYDIAQRSISRFSSDGFRNGTIYYPTDTSDGKFGVIAISPGYTAGESSIAWLGSRIASFGFVVVTINTTTRYDQPRQRSTQLLAALDHAMNDSVVGPLIDPERQAVMGHSMGGGGALQAAESRPEIDAVVALTPWNLKKNWDGVDAATLIIGAERDTVASVRTHSIPFYESLTQAEQRGYLELRGASHFAPNVSNTTIAKYSIAWMKRYLDNDDRYDQFLNPGPAVGYASGVSDYRLQ [DP003]”, the melting temperature in data set [1] is 42.4 C. In data set [2], the “purified protein yield per well” value came to 185 µg. Besides, the PET hydrolysis in data set [3] (setting [5]) was under 3; in data set [3] (setting [6]) it was under 3; in data set [3] (setting [7]), under 3; in data set [3] (substrate: aFilm, 40 °C, pH 8.5) it was 3 ± 4.2; in data set [3] (setting [9]), under 3; in data set [3] (setting [10]), under 3. The PET hydrolysis in data set [3] (setting [11]) is under 3; in data set [3] (substrate: aFilm, 60 °C, pH 8.5), under 3; in data set [3] (setting [13]) it was under 3; in data set [3] (setting [14]), under 3; in data set [3] (setting [15]), under 3; in data set [3] (substrate: cryPow, 40 °C, pH 8.5) it was under 3. Also, the PET hydrolysis in data set [3] (setting [17]) was under 3; in data set [3] (setting [18]) it was under 3; in data set [3] (setting [19]), under 3; in data set [3] (substrate: cryPow, 60 °C, pH 8.5), under 3.
